Assay results from the RNAGym collection of RNA variant scans (doi:10.1073/pnas.2313332121).

B1: TPR t1 (parent)
chain: GACCAAUCUGCCCUCAGAGCUCGAGAACAUCUUCGGAUGCAGAGGAGGCAGGCUUCGGUGGCGCGAUAGCGCCAACGUCCUCAACCUCCAAUGCAUCCCACCACAUGAUGAUGCCUGAAGAGCCUUGGUUUUUUG

Variants of: B1
Assay: polymerase ribozyme fitness, log enrichment relative to wild type (log ratio); higher = more active; in vitro selection for triplet polymerase activity
In short: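 A single round of triplicate in vitro selection, including frozen incubation at −7 °C, was applied to PCR-built, transcribed mutant libraries of each subunit of a heterodimeric triplet polymerase ribozyme. Illumina sequencing of input and output libraries retained genotypes with ≥10 input reads and ≥1 read per output. Fitness is the base-2 logarithm of genotype enrichment divided by wild-type enrichment, from inverse-variance-weighted replicate averages.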

| Variant | polymerase ribozyme fitness (log ratio) |
| --- | --- |
| C40U G122A | -1.22 |
| C40G U59A C86U A100U | -4.58 |
| C40G C70G | -4.89 |
| A41C G71U | -0.988 |
| A41C C53G C85A A111U U112A U116C | -6.24 |
| A41G G44A C62A U131G | -3.51 |
| C40U A91C C97U C115U | -3.9 |
| C40A U129G U131A G135C | -4.21 |
| C40G A84G | -2.06 |
| C40U C64U C82G | -1.35 |
| C40U C62G G127C | -3.27 |
| C40G C56U A91C | -2.49 |
| C40G C102A | -3.26 |
| C40G C56U C70A G77A C88U A103U A119G | -7.04 |
| C40U G51U | -3.7 |
| A41G G60A | -0.408 |
| C40G A46U C53U C62A | -3.89 |
| C40U A41U G60A | -2.3 |
| A41G C64A | -7.34 |
| C40G | -0.921 |
| C40U | -0.543 |

| Variant | polymerase ribozyme fitness (log ratio) |
| --- | --- |
| C40U C56G | -1.16 |
| C40G G113A G122C | -1.81 |
| C40U C104A | -2.08 |
| C40U C104U | -0.655 |
| C40U U109A G120C | -5.74 |
| C40G C101G C104U | -3.21 |
| A41G C104U | 0.737 |
| C40U G47U C53U | -3.37 |
| C40G C56U G69U | -3.63 |
| C40U U59A U116A | -4.02 |
| C40G G44C A74U U78G | -2.88 |
| A41C C80A G107A G117U U129C | -7.66 |
| C40G A95U | -3.37 |
| C40G C82A A83C U87A A121U | -0.502 |
| C40U G48U C82A C88A | -3.31 |
| A41C C70U C85U | -2.92 |
| C40U A119G U126G G127U | -0.212 |
| C40U G52A | -0.72 |
| C40G U109A C114G U132A | -4.05 |
| C40G G44U C85U | -5.09 |
| C40G C94A G110C C114U A118G | -6.35 |

| Variant | polymerase ribozyme fitness (log ratio) |
| --- | --- |
| C40U C86G | -1.6 |
| A41C G107C G117A | -6.25 |
| C40G A43G U54A | -4.85 |
| C40G A41U C70U C124G | -3.14 |
| C40U C76U G117A | -2.16 |
| C40U C72U C98G G127U U131C | -6.34 |
| C40U A43U G57U G63C | -3.07 |
| C40U C56U A74U U78C C89G | -2.81 |
| A41C C70A U78C G128U U131C | -4.08 |
| C40U A41C C56A C73U C114A | -3.67 |
| C40U G42A C56A C76G G93U C114G | -4.34 |
| C40U C104A A119G | -1.84 |
| C40U G61U C86G | -2.87 |
| C40U C80U C99U C124U | -2.92 |
| A41G G48U C62A C80U A91U C98U C123A | -7.74 |
| A41G G45U C56G | -0.725 |
| C40U G60U G110A | -1.76 |
| C40U A74U A111C | -1.01 |
| C40U G93A | -1.09 |
| C40U A83G U112G | -1.69 |
| C40G C94A | -2.65 |

| Variant | polymerase ribozyme fitness (log ratio) |
| --- | --- |
| C40U G48A C53A G61A U132A | -0.596 |
| A41C C72A U92G G120U U129C | -2.57 |
| A41C U106G C114U U130A | -4.41 |
| A41C G93A U112A | -1.27 |
| C40G C88G U125G | -6.8 |
| C40U C49A G61U C82G U131G | -0.822 |
| C40U G110U G135C | -2.95 |
| C40G U81C | -1.19 |
| C40U G57C A90C A103U U112G | -6.33 |
| C40U U54A | -0.773 |
| C40G G45U U106A U112A | -0.392 |
| A41C A43C C72G C88A G93U C99A C102A C124A | -7.15 |
| A41C A91U A95C G113A | -3.38 |
| C40G A50U | -0.606 |
| C40G C56U G128C | -3.4 |
| C40G C49U G69A U78A | -4.96 |
| C40U A43G G61A G71U C124A | -4.58 |
| C40U G51A G71C | -4.85 |
| A41G G42U A75G A90U G128C U129A | -4.64 |
| C40U C82G | -1.54 |
| A41G C70U U78C | -0.997 |
